Source: the supplement of paper PMC9732359
± gives the uncertainty stated by the source.

Experiment: protein stability index of a GFP-peptide fusion (yeast GPS) (PSI 1-4); higher = more stable; sorted into four equal gates, so the index is relative within each strain
Settings: san1∆
Outline: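 Tiled 17-residue yeast protein peptides were fused downstream of GFP in a plasmid that also expresses Cherry, and the pooled library was carried in yeast. Mid-log cultures in leucine-free medium were sorted into four equal gates by GFP/Cherry fluorescence ratio, and plasmids from each gate were PCR-amplified and Illumina-sequenced, with reads assigned to strains by barcodes. The protein stability index for each peptide was each gate's read frequency times its gate number, summed.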

| Sequence | protein stability index |
| --- | --- |
| LLFAINSYQPSPFFVLD [SMC1] | 2.23 ± 0.082 |
| LLFPKSTIVNLAREVPQ [DPB4] | 1.72 ± 0.18 |

Same assay, conditions: ubr1∆

| Sequence | protein stability index |
| --- | --- |
| LDIINPGSVEEVDKSKL [YDL116W/NUP84] | 3.53 ± 0.087 |
| LDLANSGDESNVISSKD [YDL116W/NUP84] | 3.26 ± 0.063 |
| LDLIPHSSSVFKGTDFV [SRB4] | 2.4 ± 0.041 |
| LDMELAELDPSLRTPIA [SEC65] | 3.06 ± 0.076 |
| LDNFETKTEALLSDVVS [YJL041W/NSP1] | 2.12 ± 0.059 |
| LDPNLITLALSSNPNSS [SRB4] | 2.56 ± 0.11 |
| LDQTKDTRITHLLRQTN [SNF2] | 1.32 ± 0.029 |
| LDSDSENDLSFALMRYY [RRI2] | 2.91 ± 0.047 |
| LEDGDVVLFNRQPSLHR [RPO31] | 2.08 ± 0.051 |
| LEDKLRAVLTPLITRHC [RRP46] | 2.44 ± 0.035 |
| LEERFDPKSPTKRSIAI [YMR129W/POM152] | 3.02 ± 0.034 |
| LEETRTTIGDTTDKNTT [BRN1] | 3.17 ± 0.057 |
| LEFSIYHRLSNKDMIKN [CSN12] | 2.79 ± 0.15 |
| LEGKGSLEEIIAEGQKK [RPP2B] | 2.72 ± 0.046 |
| LEHIDSKSEFAHRIMLT [FAS2] | 2.25 ± 0.063 |
| LEHPYGKEVEVLMETKN [SNU114] | 2.21 ± 0.057 |
| LEIMQLVCGNDSSYQDI [RET1] | 2.91 ± 0.17 |
| LEIVYGYALRDVQARRQ [RPP1] | 2.3 ± 0.26 |
| LEKGNNPSVKQGEVGAV [SWP82] | 2.7 ± 0.074 |
| LEKKFPDRHVIFLAERR [RPS7B] | 3.1 ± 0.042 |
| LEKKFQDRHVIFLAERR [RPS7A] | 2.71 ± 0.11 |
| LEPDYQAPFSTSTKDKN [MED1] | 3.08 ± 0.074 |
| LEPSGSYWGYKGAATGK [PRE10] | 2.37 ± 0.16 |
| LERRELEGTRVSLEERT [SMC4] | 3.36 ± 0.1 |
| LERVKRIMEKSVILSVI [YML031W/NDC1] | 1.61 ± 0.049 |

| Sequence | protein stability index |
| --- | --- |
| LESVGIEIEDEKVSSVL [RPP2A] | 2.78 ± 0.094 |
| LEVGKNNFCALYNLSNP [RPN14] | 1.13 ± 0.046 |
| LEVVQYIEDGRNPDIYT [NUT2] | 3.27 ± 0.039 |
| LEYWCNPPYSQCIVYPN [SOH1] | 2.13 ± 0.037 |
| LFDEFGNLIGVDPFDSD [SNU114] | 3.17 ± 0.058 |
| LFEIYRDLGDDRVFNVP [YJR042W/NUP85] | 2.89 ± 0.097 |
| LFEVNPSQTLFSISYKP [SRP21] | 2.64 ± 0.045 |
| LFGNNAGNTTTGGGLFG [YGL172W/NUP49] | 3.36 ± 0.17 |
| LFKPLNKTLTLDLKECY [ARP7] | 2.27 ± 0.12 |
| LFLEPSWSSSAAVIMRC [PCI8] | 2.39 ± 0.095 |
| LFLNTGCLSVLYQSKGR [SRP68] | 1.25 ± 0.059 |
| LFQENDDDDDDDDEVDY [DSN1] | 3.06 ± 0.15 |
| LFVGTDRQLHEISTSKK [RPN14] | 2.7 ± 0.092 |
| LGASFGQQQQQSQTNAF [YGL172W/NUP49] | 2.19 ± 0.075 |
| LGEIPNPMKKHKPNEGR [SIR4] | 2.88 ± 0.04 |
| LGFVLLRDYTTVPRIVQ [RPN2] | 1.42 ± 0.038 |
| LGKLQDVFNLLPNLGTP [RPN8] | 2.82 ± 0.081 |
| LGKYDLTVIEKLDSKKI [SRP68] | 3.63 ± 0.16 |
| LGMMYEQKLIDQHVINI [YCS4] | 2.08 ± 0.05 |
| LGQIGACHVEVPYVLMG [COB] | 1.95 ± 0.06 |
| LGRLSVRELVEKIDGMD [RPC82] | 3.3 ± 0.063 |
| LGTTEGDIKVLDSNFNL [RPN14] | 3.26 ± 0.081 |
| LGYNFDGSAIEDDDIRS [SNF5] | 3.35 ± 0.05 |
| LHIHLNQILQTEIENYL [YDL116W/NUP84] | 1.86 ± 0.043 |
| LHLDYNFNLKPTKTLTT [PRP8] | 2.5 ± 0.03 |

| Sequence | protein stability index |
| --- | --- |
| LHTARKILVLTGAGVST [SIR2] | 2.29 ± 0.059 |
| LHVPNLQPPKTSSRGRD [SMC4] | 2.18 ± 0.039 |
| LIAHQRSAWNNNNDNDA [GRR1] | 2.65 ± 0.039 |
| LIDSLENHLLVMKQVET [PRP28] | 2.06 ± 0.063 |
| LIECLLSKVAALSGNEG [RPB2] | 1.27 ± 0.08 |
| LIELKSDLLVAPPLENE [YML103C/NUP188] | 2.19 ± 0.05 |
| LIEYMENDAKKSKGDVD [NUT1] | 3.03 ± 0.058 |
| LIGAATKFKGGKRQLMK [SEC65] | 1.93 ± 0.14 |
| LILILVISFGQPKLNPM [SWI1] | 2.09 ± 0.04 |
| LIMALLQFRPAPMYILD [SMC2] | 1.06 ± 0.046 |
| LIQKGYLQRGDDGESYA [CDC53] | 3.12 ± 0.066 |
| LISLKLLTFEVTQNVLG [SRB8] | 1.69 ± 0.084 |
| LITQLDGFDPRGNIKVM [RPT1] | 3.32 ± 0.21 |
| LITTNSVEEVILERAYK [SNF2] | 1.95 ± 0.031 |
| LKAAFVAIGNTYGFLTP [RPS2] | 2.55 ± 0.042 |
| LKDIEARIKEKAGVKES [RPT1] | 3.31 ± 0.081 |
| LKENTYVMERPKNVPTS [YDL116W/NUP84] | 2.96 ± 0.093 |
| LKESIKNSTSSMTAVPK [RPN1] | 3.2 ± 0.084 |
| LKGEIEDYPMSSEIKIY [SIR4] | 1.64 ± 0.2 |
| LKHKSICSCVNRGVKLE [RPP1] | 2.68 ± 0.034 |
| LKHLEEMGKLRERDITS [RRI2] | 3.16 ± 0.068 |
| LKIFLYLESLFAKQVDV [IRR1] | 2.53 ± 0.049 |
| LKIFQEQSLEVFIFPTS [SRB8] | 2.28 ± 0.041 |
| LKISLIQIFRAHLWQKI [PRP8] | 1.12 ± 0.057 |
| LKKFLQEKMDPNNSRDD [IRR1] | 3.09 ± 0.07 |

| Sequence | protein stability index |
| --- | --- |
| LKKKYQIILDRFAPDNQ [SIR3] | 1.74 ± 0.062 |
| LKKSEEIINNKTSSQTS [YMR153W/NUP53] | 3.19 ± 0.069 |
| LKLEKLNTNRTFAQEKL [SMC3] | 2.93 ± 0.057 |
| LKLLKENIIQMEMIENR [FAS1] | 1.93 ± 0.074 |
| LKNFLSYESLKKRKIHN [MCD1] | 1.59 ± 0.034 |
| LKNIMKVSDPYVPTRNT [RPN4] | 2.59 ± 0.11 |
| LKNKYESYDAALSLHRE [FAS2] | 3.034 ± 0.014 |
| LKNSIMSFIFPSYAERQ [YML031W/NDC1] | 2.4 ± 0.067 |
| LKQPPFQITLSSDDLQN [SSN8] | 2.35 ± 0.085 |
| LKRRQVIEQCYLKFIPL [SRB8] | 1.83 ± 0.032 |
| LKSAENSGKQQYYRGLP [SWP82] | 2.75 ± 0.068 |
| LKTNFETEWNLQTLAAD [RPB11] | 2.67 ± 0.1 |
| LKVDPDMLTWVDSNLPD [RPC40] | 3.26 ± 0.073 |
| LKVNVTLDNPLLVDKDA [YJL039C/NUP192] | 2.7 ± 0.051 |
| LLAEEEELILPNTKDAM [PRP8] | 3.04 ± 0.079 |
| LLAHKVADEEANIELTW [RPC37] | 1.74 ± 0.1 |
| LLARVIQMNNSLQNNLQ [SNF11] | 2.06 ± 0.086 |
| LLDFNTALKQYEKELMG [RPN6] | 3.12 ± 0.13 |
| LLEISCKQWEISNMLKK [CSI1] | 1.5 ± 0.046 |
| LLEQKKSIINSQRPGAR [ITC1] | 2.62 ± 0.11 |
| LLETITYVLNTWTNSKI [YML103C/NUP188] | 2.29 ± 0.036 |
| LLFAINSYQPSPFFVLD [SMC1] | 2.57 ± 0.044 |
| LLFPKSTIVNLAREVPQ [DPB4] | 1.94 ± 0.14 |
